The experiment deals with hepatitis C virus in patient serum. As to the kind of experiment: immobilized adsorbent shaken with HCV patient serum 37 C 2 h; HCV RNA in supernatant against saline control.

Take “protein G (Pharmacia LKB) (from UniProt P19909 303-497)”: the Adsorption rate (%) is 82%.
As to “peptide having the amino acid sequence of 57 residues in the C3 domain of protein G with cysteine ad”, the Adsorption rate (%) stood at 28%.

For the origin of these results see patent publication US20040006214A1.
